Measured values from article PMC6588460.

Biological target: AKAP95 (human (endogenous in HEK293T)) (UniProt O43823)
Test: proximity ligation

UniProt O43823, sequence (O43823 whole entry): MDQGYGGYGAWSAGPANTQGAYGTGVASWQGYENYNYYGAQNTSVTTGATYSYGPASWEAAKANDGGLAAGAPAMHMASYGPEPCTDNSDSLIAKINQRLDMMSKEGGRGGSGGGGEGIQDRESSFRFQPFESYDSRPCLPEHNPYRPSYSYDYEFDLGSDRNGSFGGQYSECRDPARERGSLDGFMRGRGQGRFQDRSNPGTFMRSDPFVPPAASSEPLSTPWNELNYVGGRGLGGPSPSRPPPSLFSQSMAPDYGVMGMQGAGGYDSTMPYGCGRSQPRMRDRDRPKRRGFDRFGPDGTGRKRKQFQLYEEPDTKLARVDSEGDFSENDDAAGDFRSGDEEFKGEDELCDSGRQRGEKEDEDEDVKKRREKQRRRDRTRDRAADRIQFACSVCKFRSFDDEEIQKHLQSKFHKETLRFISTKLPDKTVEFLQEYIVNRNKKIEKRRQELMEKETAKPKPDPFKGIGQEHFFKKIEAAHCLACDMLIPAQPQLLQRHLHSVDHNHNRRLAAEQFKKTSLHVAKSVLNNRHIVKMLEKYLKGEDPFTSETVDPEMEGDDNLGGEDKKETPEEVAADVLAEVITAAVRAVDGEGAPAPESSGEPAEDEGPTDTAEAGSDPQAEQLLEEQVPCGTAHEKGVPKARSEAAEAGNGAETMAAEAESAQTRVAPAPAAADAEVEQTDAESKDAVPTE

PDE4D5 (enzyme)
PLA dots per nuclei (dots per nuclei): 3.8
